“And” between values parts separate entries of the source, which are not always exact repeats. Equal entries are not always repeated. No end group written: not given here.
Key:
Details in all cases: both partners purified
[1] = target: T1, talin-1 head domain (THD1) (UniProt P26039 1-405); experiment: MST; apparent; THD1 titrated to 488–β1-CT or 488–β3-CT in the presence of 500–1,100 µM KIND2-F0; MST buffer
T1 construct: talin-1 (TLN1) head domain (THD), residues 1-405; murine TLN1 cDNA is named only for the cell lines; also called WT; source: E. coli (DE3) Rosetta 2, purified (IMAC, SEC); not shown: His10-SUMO, N-terminal, cleaved
T1 sequence (P26039 1-405): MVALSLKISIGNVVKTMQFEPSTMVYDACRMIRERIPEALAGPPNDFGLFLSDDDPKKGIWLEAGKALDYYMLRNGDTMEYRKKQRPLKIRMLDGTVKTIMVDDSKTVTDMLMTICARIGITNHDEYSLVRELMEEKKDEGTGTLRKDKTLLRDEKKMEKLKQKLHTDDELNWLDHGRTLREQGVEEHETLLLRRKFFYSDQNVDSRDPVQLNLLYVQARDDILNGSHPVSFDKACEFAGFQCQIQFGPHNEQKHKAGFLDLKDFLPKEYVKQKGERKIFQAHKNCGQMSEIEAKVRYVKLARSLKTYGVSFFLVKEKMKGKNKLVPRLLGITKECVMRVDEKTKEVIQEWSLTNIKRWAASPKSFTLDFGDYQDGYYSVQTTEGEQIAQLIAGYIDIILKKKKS

THD1 K402E [2] = target: T2, THD1 K402E (UniProt P26039 1-405, K402E); experiment: MST; apparent; THD1 or THD1 mutants titrated to 488–β3-CT in the presence of 30-40 µM KIND2; MST buffer
T2 construct: talin-1 (TLN1) head domain, residues 1-405, K402E; source: E. coli (DE3) Rosetta 2, purified (IMAC, SEC); not shown: His10-SUMO, N-terminal, cleaved
T2 sequence (P26039 1-405 K402E): as the sequence (P26039 1-405) above, with K402E counted along it

THD1 KKAA = target: T3, THD1 KKAA (UniProt P26039 1-405, KKAA (KK402/403)); experiment: as above
T3 construct: the sheet prints only 'KKAA'; source: E. coli (DE3) Rosetta 2, purified (IMAC, SEC); not shown: His10-SUMO, N-terminal, cleaved
T3 sequence (P26039 other isoform, or with tags, fused parts or gaps KKAA (KK402/403) | KKAA (KK402/403)): as the sequence (P26039 1-405) above, with K402A, K403A counted along it

THD1 Y395A = target: T4, THD1 Y395A (UniProt P26039 1-405, Y395A); experiment: as above
T4 construct: talin-1 (TLN1) head domain, residues 1-405, Y395A; source: E. coli (DE3) Rosetta 2, purified (IMAC, SEC); not shown: His10-SUMO, N-terminal, cleaved
T4 sequence (P26039 1-405 Y395A): as the sequence (P26039 1-405) above, with Y395A counted along it

[3] = target: T1, talin-1 head domain (THD1); experiment: as above
THD1 K403A [4] = target: T5, THD1 K403A (UniProt P26039 1-405, K403A); experiment: as above
T5 construct: talin-1 (TLN1) head domain, residues 1-405, K403A; source: E. coli (DE3) Rosetta 2, purified (IMAC, SEC); not shown: His10-SUMO, N-terminal, cleaved
T5 sequence (P26039 1-405 K403A): as the sequence (P26039 1-405) above, with K403A counted along it

THD1 K402A = target: T6, THD1 K402A (UniProt P26039 1-405, K402A); experiment: as above
T6 construct: talin-1 (TLN1) head domain, residues 1-405, K402A; source: E. coli (DE3) Rosetta 2, purified (IMAC, SEC); not shown: His10-SUMO, N-terminal, cleaved
T6 sequence (P26039 1-405 K402A): as the sequence (P26039 1-405) above, with K402A counted along it

[5] = target: T1, talin-1 head domain (THD1); experiment: MST; unlabelled protein titrated to 50-200 nM ATTO 488-labelled β-CT peptide, no third protein; 20 mM Tris pH 7.5, 200 mM NaCl, 1 mM TCEP, 0.05% Tween-20; Kd of individual titrations (in S0002 mean and sd, n = 2)
[6] = target: T1, talin-1 head domain (THD1); experiment: as above; remark: listed apart in the source
THD1 K403A [7] = target: T5, THD1 K403A; experiment: as above
kindlin-2 (KIND2) = target: T7, kindlin-2 (KIND2) (UniProt Q8CIB5 1-680); experiment: MST; apparent; KIND2 titrated to 488–β3-CT in the presence of 250-450 µM TLN1-F3; MST buffer
T7 construct: kindlin-2 (KIND2), recombinant; with the F1 loop and the PH domain (unlike ΔKIND2); source: E. coli Rosetta, purified (IMAC, SEC); not shown: His10-SUMO, N-terminal, cleaved
T7 sequence (looked up): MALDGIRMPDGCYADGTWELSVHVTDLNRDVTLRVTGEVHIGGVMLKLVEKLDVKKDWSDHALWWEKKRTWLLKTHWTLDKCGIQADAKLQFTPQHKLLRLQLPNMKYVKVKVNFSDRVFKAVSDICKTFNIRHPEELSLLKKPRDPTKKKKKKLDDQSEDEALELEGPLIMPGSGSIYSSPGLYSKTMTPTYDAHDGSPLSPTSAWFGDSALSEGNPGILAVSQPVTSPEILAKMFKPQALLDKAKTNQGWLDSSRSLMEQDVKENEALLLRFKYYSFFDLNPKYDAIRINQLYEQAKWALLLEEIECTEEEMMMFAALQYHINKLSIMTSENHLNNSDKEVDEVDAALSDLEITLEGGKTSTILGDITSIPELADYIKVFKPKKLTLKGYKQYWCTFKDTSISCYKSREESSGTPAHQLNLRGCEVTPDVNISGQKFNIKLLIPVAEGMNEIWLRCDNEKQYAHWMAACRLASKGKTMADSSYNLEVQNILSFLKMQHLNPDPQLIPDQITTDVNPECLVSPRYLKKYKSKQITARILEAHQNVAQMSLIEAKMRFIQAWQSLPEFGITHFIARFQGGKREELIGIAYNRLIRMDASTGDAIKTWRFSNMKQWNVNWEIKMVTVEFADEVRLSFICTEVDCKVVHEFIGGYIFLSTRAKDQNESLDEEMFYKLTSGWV

THD1 K402E [8] = target: T2, THD1 K402E; experiment: MST; unlabelled protein titrated to 50-200 nM ATTO 488-labelled β-CT peptide, no third protein; 20 mM Tris pH 7.5, 200 mM NaCl, 1 mM TCEP, 0.05% Tween-20; Kd of individual titrations (in S0002 mean and sd, n = 2)

Kd [1]: 105 µM and 87.6 µM
Kd (THD1 K402E [2]): 54.3 µM and 67.7 µM and 70.3 µM
Kd (THD1 KKAA): 88.3 µM
Kd (THD1 Y395A): 42 µM
Kd [3]: 95 µM
Kd (THD1 K403A [4]): 114 µM
Kd (THD1 K402A): 117 µM
Kd [5]: 81.6 µM
Kd [6]: 105 µM
Kd (THD1 K403A [7]): 68.1 µM
Kd (kindlin-2 (KIND2)): 119 µM and 121 µM
Kd (THD1 K402E [8]): 37.8 µM and 35.5 µM and 32.5 µM
B1: ATTO 488-labeled integrin β3 cytoplasmic tail (488–β3-CT) (peptide, UniProt O54890 741-787, looked up)
peptide: {ATTO 488}-KLLITIHDRKEFAKFEEERARAKWDTANNPLYKEATSTFTNITYRGT
notes: integrin β3 cytoplasmic tail (β3-CT); source: synthetic peptide (MPIB Core Facility)
